Measured values taken from article PMC4547098 (eLife, 2015).

B1: Pikp-HMA domain made in Sf9 cells for crystallisation (domain or fragment, rice (Oryza sativa), UniProt E9KPB5 186-258, looked up)
chain: GLKQKIVIKVAMEGNNCRSKAMALVASTGGVDSVALVGDLRDKIEVVGYGIDPIKLISALRKKVGDAELLQVS
notes: also called Pikp1-HMA; not shown: 6xHis+SUMO, N-terminal, cleaved
B2: Pikp-HMA domain (HMA integrated domain of the rice NLR Pikp-1) (domain or fragment)
chain: B1 chain
notes: also called Pikp1-HMA; Pikp-1 HMA; not shown: 6xHis+SUMO, N-terminal, cleaved

Columns and labels:
[1] = molecular target: the molecule itself; experiment: crystal structure; Pikp-HMA alone; 0.1 M MIB buffer pH 5.0, 25% PEG 1500; dimer in the crystal
[2] = molecular target: AVR-PikD with non-cleavable C-terminal 6xHis tag (pOPINE) (Magnaporthe oryzae, UniProt C4B8B8 22-113); experiment: SPR; Biacore T200, 25°C, multi-cycle kinetics; […]; 50 mM HEPES pH 7.5, 150 mM NaCl, 0.1% Tween 20; […]; conditions: both partners purified

| Binder | stoichiometry N [1] | Kd [2] |
| --- | --- | --- |
| B1 | 2 |  |
| B2 |  | 31 ± 2 nM |
